{"source": "patent US20250270295A1", "about": "(ALBERT LUDWIGS UNIVERSITAET FREIBURG, published 2025)", "binders": {"B1": {"name": "gp34mtrp.01 (antibody, V domains shown)", "VH": "QVKLEESGAELVKPGASVKLSCTGSGFNIKDIYMDWVKQRPEQGLEWIGRIDPANGNSKYDPKFQGKATITVDTSSNTAYLQLSSLTSEDTAVYYCASYYGSSYNYWGQGTTLTVSS", "VL": "DIVITQTPPSVPVTPGESVSISCRSSKSLLHSNGNTYLYWFLQRPGQSPQLLIYRMSNLASGVPDRFSGSGSGTAFTLRISRVEAEDVGVYYCMQHLEYPLTFGAGTKLELKRADAAPTVS", "notes": "mouse IgG1 hybridoma mAb; leader in entries; also called anti gp34 clone mtrp.01"}, "B2": {"name": "gp34mtrp.02 (antibody, V domains shown)", "VH": "B1 VH with E6Q", "VL": "B1 VL", "notes": "mouse IgG1 hybridoma mAb; leader in entries; also called anti gp34 clone mtrp.02"}, "B3": {"name": "soluble gp34 ectodomain W65F, V5-His tagged (sgp34mtrp-V5-His) (receptor)", "chain": "SSSNAVEPTKKPLKLANYRATCEDRTRTLVTRLNTSHHSVVFQRYDIYSRYMRRMPPLCIITDAYKETTRQGGAAFACTRQNLTLYNLTVKDTGVYLLQDQYTGDVEAFYLIIHPRSFCRALETRRCFYPGPGRVVVTDSQEADRAIISDLKRQWSGKPIPNPLLGLDSTRTGHHHHHH", "notes": "signal peptide 1-23 left out; V5 and His tags are in the entry; Forms only monomers and dimers; also called sol gp34mtrp; gp34 1-179 W65F"}}, "key": {"[1]": {"biological_target": "T1, gp34mtrp (W65F) on stably transduced HeLa cells (HCMV strain AD169, UniProt P16809 24-234)", "T1 construct": "whole, on cells; also called plasma membrane exposed gp34mtrp", "T1 sequence": "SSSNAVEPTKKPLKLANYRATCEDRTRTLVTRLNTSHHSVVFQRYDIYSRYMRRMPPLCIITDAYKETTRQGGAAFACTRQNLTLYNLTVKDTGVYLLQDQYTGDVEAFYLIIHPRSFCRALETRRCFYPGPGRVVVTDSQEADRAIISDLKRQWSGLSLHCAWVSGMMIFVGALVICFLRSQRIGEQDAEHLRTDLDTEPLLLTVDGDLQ", "experiment": "flow cytometry, HeLa, 1 µg/ml"}, "[2]": {"biological_target": "T2, gp34wt on stably transduced HeLa cells (HCMV strain AD169, UniProt P16809 24-234)", "T2 construct": "whole, on cells; also called plasma membrane exposed gp34wt", "T2 sequence": "T1 sequence with F42W", "experiment": "flow cytometry, HeLa, 1 µg/ml"}, "[3]": {"biological_target": "T3, soluble gp34 wild type ectodomain, V5-His tagged (sgp34wt-V5-His) (HCMV strain AD169)", "T3 construct": "Entry holds signal peptide 1-23 (left out), ectodomain, V5 tag and His tag; Forms monomers, dimers and higher oligomers; also called sol gp34 wt; gp34 1-179", "T3 chain": "B3 chain with F42W", "experiment": "sgp34wt pre-incubated with mAb, ELISA on CRP", "from_the_text": "In addition, binding of sgp34wt to immobilized CRP in absence of any mAb is depicted."}, "[4]": {"biological_target": "T3, soluble gp34 wild type ectodomain, …", "experiment": "sgp34wt pre-incubated with mAb, ELISA on FcRn", "method": "Furthermore, the gp34wt and FcRn interaction was investigated whereby various anti-gp34 mAbs were analyzed and their potential to block this interaction was identified. Experiments were performed as described before for IgG-blocking ELISA, but this time using immobilized FcRn as a novel gp34-ligand.\nIn addition, binding of sgp34wt to immobilized FcRn in absence of any mAb is depicted."}, "[5]": {"biological_target": "T3, soluble gp34 wild type ectodomain, …", "experiment": "blocking of sgp34wt binding to immobilized human IgG, ELISA", "method": "FIG. 44: IgG blocking ability by anti-gp34mtrp mAbs. vFcγR gp34 is an HCMV encoded IgG-Fc-binding. Anti-gp34mtrp-specific mAbs (in titration) were pre-incubated with recombinant, sgp34wt (constant amount 1 μg/ml) and added to IgG-immobilized ELISA plates. […] Dose-dependent potential of mAbs used for blocking is indicated. Effect by non-specific mouse IgG isotype IgG1 is shown. In addition, binding of sgp34wt to immobilized IgG in absence of any mAb is depicted.\nTo test if anti-gp34wt specific mAbs can interfere with IgG-binding ability of gp34 and human IgG. Therefore, recombinant, sgp34wt was pre-incubated with indicated anti-gp34wt specific mAbs, mouse IgG isotype or PBS only. Next, antibody bound sgp34wt was incubated on IgG-immobilized ELISA plates.\nAnti-gp34wt-specific mAbs (in titration) were pre-incubated with recombinant, sgp34wt (constant amount 1 μg/ml) and added to IgG-immobilized ELISA plates. […] Dose-dependent potential of mAbs used for blocking is indicated. […] In addition, binding of sgp34wt to immobilized IgG in absence of any mAb is depicted."}, "[6]": {"biological_target": "B3", "experiment": "ELISA mtrp"}, "[7]": {"biological_target": "T4, C-reactive protein (human, UniProt P02741 19-224)", "T4 construct": "also called CRP; human CRP", "T4 sequence": "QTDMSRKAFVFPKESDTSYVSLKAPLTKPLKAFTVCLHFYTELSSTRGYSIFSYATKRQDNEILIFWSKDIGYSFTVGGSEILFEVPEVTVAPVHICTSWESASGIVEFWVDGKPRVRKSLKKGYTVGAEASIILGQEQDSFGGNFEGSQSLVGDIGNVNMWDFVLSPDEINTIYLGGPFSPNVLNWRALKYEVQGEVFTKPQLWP", "experiment": "ELISA, CRP beside IgG1 and IgA"}}, "note": "Where a chain is given by its changes, count along the chain named. Names may count otherwise.", "data": [{"binder": "B1", "values": [{"measurement": "binding result", "setting": "[1]", "result": "binds"}, {"measurement": "binding result", "setting": "[2]", "result": "binds"}, {"measurement": "percent blocking of gp34-CRP-binding", "setting": "[3]", "result": "~50", "unit": "%"}, {"measurement": "percent blocking of gp34 FcRn-binding", "setting": "[4]", "result": "≤ 50", "unit": "%"}, {"measurement": "IC50", "setting": "[5]", "result": 0.239, "unit": "µg/mL"}, {"measurement": "binding result", "setting": "[6]", "result": "binds"}]}, {"binder": "B2", "values": [{"measurement": "binding result", "setting": "[1]", "result": "binds"}, {"measurement": "binding result", "setting": "[2]", "result": "binds"}, {"measurement": "percent blocking of gp34-CRP-binding", "setting": "[3]", "result": "~50", "unit": "%"}, {"measurement": "percent blocking of gp34 FcRn-binding", "setting": "[4]", "result": "≤ 50", "unit": "%"}, {"measurement": "IC50", "setting": "[5]", "result": 0.33, "unit": "µg/mL"}, {"measurement": "binding result", "setting": "[6]", "result": "binds"}]}, {"binder": "B3", "values": [{"measurement": "binding result", "setting": "[7]", "result": "binds"}]}]}
